Earlier results in paper PMC6359047.

Molecular target: MT1-MMP (Homo sapiens) (UniProt P50281)

Chain of TIMP-1 (P01033 24-207): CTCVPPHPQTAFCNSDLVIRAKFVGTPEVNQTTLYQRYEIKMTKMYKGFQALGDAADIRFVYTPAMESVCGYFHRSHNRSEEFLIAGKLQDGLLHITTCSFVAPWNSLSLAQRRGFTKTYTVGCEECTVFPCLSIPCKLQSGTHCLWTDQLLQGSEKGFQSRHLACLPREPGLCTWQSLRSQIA

Ki: 178 nM
Substance: TIMP-1 (from UniProt P01033)
